Experimental data taken from patent US9902783B2, “Antibodies and pharmaceutical compositions containing same useful for inhibiting activity of metalloproteins” (Yeda Research and Development Co. Ltd., priority 2007, dated 2018).

Biological target: T1, catalytic zinc ion of MMP9 (Homo sapiens, UniProt P14780)
T1 construct: lacking the hinge region and the hemopexin domain, Ala1-Gly424 |P14780|MMP9_HUMAN; made in house
Assay: X-ray absorption spectroscopy of MMP9-6C6 complex
Settings: zinc K edge XAS, MMP-9 catalytic domain-mAb complex
From the text: FIG. 16 is a graph of results from X-ray absorption spectroscopy at the zinc K edge of active MMP9 (black) and inhibited MMP9-6C6 complex (red). The results are presented in the form of radial distribution from the zinc ion. The edge position the MMP-9 catalytic domain-mAb complex (red) shifts to a higher energy relative to active MMP-9 (inset) indicating binding to the catalytic zinc ion. […] Remarkably, this mode of binding is analogous to the binding of TIMPs at the active site of MMPs.
In order to further study the differences between active MMP9 and an inhibited MMP9-6C6 complex, X ray absorption spectroscopy was performed. […] The data is presented in the form of Fourier transform (FT) spectra to provide the radial distribution of the various atoms within the first and second coordination shells of the catalytic zinc ion in MMP9. Apparent change in the radial distribution spectra of the free and inhibited enzyme can be observed above the noise level. These spectral changes indicate that the local environment of the catalytic zinc ion undergoes structural changes upon binding to 6C6. The observed deviation in both spatial distribution and peak intensities of the FT spectral features between the active and the inhibited enzyme indicate unequivocally that the local structure of the catalytic zinc changes upon mAb complex formation.

T1 sequence (P14780 94-444): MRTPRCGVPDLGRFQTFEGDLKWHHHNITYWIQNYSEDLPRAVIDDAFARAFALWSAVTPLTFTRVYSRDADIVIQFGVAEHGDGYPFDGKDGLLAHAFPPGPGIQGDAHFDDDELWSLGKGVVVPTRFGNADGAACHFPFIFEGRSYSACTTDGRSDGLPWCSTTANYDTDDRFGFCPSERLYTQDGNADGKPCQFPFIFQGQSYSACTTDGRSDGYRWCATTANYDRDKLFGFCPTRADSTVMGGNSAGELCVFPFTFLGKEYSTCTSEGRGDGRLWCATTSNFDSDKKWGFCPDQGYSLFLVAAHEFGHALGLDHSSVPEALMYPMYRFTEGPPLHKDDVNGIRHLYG

B1: 6C6: monoclonal antibody, IgG2a, raised against the hapten Imisdp; MMP-2 and MMP-9 inhibitory; SEQ ID NO: 1 (protein)
chain: CMETTQTPLSLPVSLGDQASISCRSSQSIVHSNGNTFLEWYLQKPGQSPKLLIYKVSNCRFSGVPDRFSGSGSGTDFTLKISRVEAEDLGVYYCFQASHVPPTFGGG
modifications: 6c6 mAb light chain
- binding mode at the catalytic zinc ion: directly binds the zinc ion
